Source: patent publication US10801046B2, “Methods and materials for biosynthesizing multifunctional, multivariate molecules via carbon chain modification” (INVISTA NORTH AMERICA S.A.R.L., priority 2016, dated 2020)

Test: In vivo carboxylate reductase screening, substrate consumption by LC-MS, heptanedioate
Type: cell-based, Escherichia coli
Conditions: 541 enzymes screened in vivo
Method: To screen carboxylate reductases in vivo, […] T7- pUC expression vectors was co-transformed into T7 Express lysY/Iq with the phosphopantetheinyl transferase sfp from Bacillus subtilis on a T7-pCDF expression vector. Biological duplicates of the resulting strains were incubated in 0.5 mL of terrific broth containing either 1 g/L heptanedioate or 1 g/L monomethyl heptanedioate and supplemented with 0.4 mM IPTG in 96-well deep well plates. The plates were incubated for 30 h at 30° C. in a shaking incubator. The cells were then pelleted, and culture supernatants from the same strains in media containing either heptanedioate or monomethyl heptanedioate were combined. The combined supernatants were analyzed by LC-MS to determine the concentration of heptanedioate and monomethyl heptanedioate. Carboxylate reductase activity on heptanedioate or monomethyl heptanedioate was reflected by consumption of the respective substrate in the medium.

Molecule	substrate preference, heptanedioic acid to 7-oxoheptanoate
SEQ ID NO: 199: Caenorhabditis elegans carboxylate reductase (protein, Caenorhabditis elegans, Caenorhabditis elegans carboxylate reductase) MVDESDVKSALNGHDRPFTITLAIVLLKIVFFIYDVVTFIPFKIFADPAEKLEKSERVKAEPDNGDPTTPWKNVSAKDGLMNSSFEGIHDLGTQWEECVRRYGNQPCMGTREVLKVHKEKQSNGKIFEKWQMGDYHWRSYAQVDKRVNMIASGLTSLGQQEKEPIILFAETREEWMTTALACMKMNFPIATMYATLGDEAVQFAINEVGAKTIFTSEALISKVKKAMSNGATSIENIIFFDSVDPASRGESVDVDLPFTLLSFDQLLSRGEPYPVPTRSKKDDLAFIMYTSGTTGNPKGVMISHQNIVAVTAGQAFNIVLGPDDRYIGYLPLAHILEVCAEMVVFTKGVRIGYSSAQTLFDRAPKIMKGEHGDCWVLQPTLMACVPAVMDRIFKAVIDEVNANSELFKQLFKTCYERKRSRYEEGYTSFILNKLVFNRIGKLLGGKVRQILSGGAPLSPETQRFMNICFCCPVVQGYGLTETCGGGTIADIHDLSTGTVGPPLTCCEILLQEWAEAGYSPKNDPPQGEILISGPNVALGYFKNDEKTKEEFVKVNGKTFFATGDIGEFREDGSLKIIDRKKDLLKLAHGEYISLGKVETNLLTNPNVDNVCVYGDSNKSFLVALVVPNQKNLTQLASKAGASNDNFEKLCEDKKVVEALQKELAQYGASKLQRVEIPQKIFICHEPWTPASGLLTEALKLKRKNIEKAFRKELDELYK	preferred acting upon heptanedioic acid to form 7-oxoheptanoate
SEQ ID NO: 196: Chromera velia CCMP2878 carboxylate reductase (protein, Chromera velia CCMP2878, Chromera velia CCMP2878 carboxylate reductase) MGAQCSAKNSLTYSIPYGEPQAEDESALYANPYMPELAGCDGLKSCWENFEVAVSSTGDKPAVGTREKQADGTLGKYVWKSWKEVAETVANLHAGLQSLDAFPLQSFPEESVQQTFKFLGVTGKNREEYLETMLAAYRAGVCLVPLYDTLGENTYEYCINQTGLKTVIVGDLKIASKLLHVAKKCECFKIIVCMDAVSDELKQEANASGVTIHSFEEVCEIGKQKPVDPTPAQSDMEINTICYTSGTTGNPKGVLVTHRALLTALSTSDELFKKEGFKIDFNDTHISYLPYAHVMERAVTEICVRRGMRIAFYSGDTTKIVDDIQLARPTVFFSVPRLYTRIYDRILSQAAAAGGIKKSLFDRALESKLTELRSTGNFTHKLWDAIVFSKIKDVLGGRVRFLVTGSAPMAKEVQEVLKVCFCCPMMEAFGMTETACCGTATAALDPTTGHVGGVVPGILLKVKGIPEMGYSPNDRGENGELMPRGELMVKGAAVFPGYFKEPEKTKEALDADGWLRTGDVCVINPNGSFKIIDRAKNIFKLAQGEYVAPEKIENIYIQCESVAQAFVTGYGTEKVLVCVVVPDEGYAKNWAKEKGLEGDAASLSALCATHGDLEAEVFKQIDAIGKARGLSGIEKAKAVRLYAEPFSVENDLLTATFKLKRHQANKTFKAQIDEMYAELNAKEKARGGS	preferred acting upon heptanedioic acid to form 7-oxoheptanoate
SEQ ID NO: 201: Auxenochlorella protothecoides carboxylate reductase (protein, Auxenochlorella protothecoides, Auxenochlorella protothecoides carboxylate reductase) MSTFPPLDAQCVVLPEKLNAPGPWTVRRNANFPEALIDSFDGEESHVRTCYDLLEHSVVKYPDSPYLGTRSVDARGAPGPYAWLSYSQVGEARTQIGSGLAHLGVRPGSNVGLFSTNCADWVLVDAALHAYACVSVPLYDTLGADVVQFVNNHAELAAVACSAATLPALLETLPASPTVAVVVVYAAPAGFRMPATPPGSAARLVSLDRLRALGMKHPSPHVPPSPADTALINYTSGTTGMPKGVVLTHANIVASIAGQIRSTAVLATIDATERHISYLPLAHIFERVTYMSVTHRGGAIGFFRGDVLTLLEDIQALRPTYFPSVPRLWNRIYDRIMAQVAASSPVKRRLFETAYAYKKRHMAAGDMTGGPWAGFWNRLVFNKIKQAVGGEVRMMVSGASALSPEVFEFMRIVFDCVVIEGYGMTETTSGATISIPGDPVIGHVGIPTPACEVKLADVPEMGYTNADLPRPRGEICVRGPLRFKEYYKDPENTRETIDEEGWLHTGDIGTWLPGERLKIIDRKKNIFKLSQGEYVAPEKIENIYVRSPYVAQVFVHGDSLRSCIVGVVVPDPEVLLPWAKQRGLPQDLATLCEDEQVKAMIQKSLSEEARVAKLKGFEQVADIVLTPVPFSVETGTMTPTFKLKRPQLREAYAPALEAMYARLPM	preferred acting upon heptanedioic acid to form 7-oxoheptanoate
SEQ ID NO: 197: Cyberlindnera jadinii carboxylate reductase (protein, listed as Cyberlindnera jadinii) MNFNQPVNPQPVPGSRVEGYSEIFTNDPPVVLDPSMDTLSKMWNNAVANFANFDCMGVRKFHNTRKQQLDTFFTYDSYAEVDRKKHNISCGIIHLVTHHPKYRELLSIAGKPEFVVGILSPNRYEWMLVDLATRDFSLTNTALYPTLGQQSSQYILSVTESPIIFLTKDQIPKILEIKPELPLLNILVSLDDFDHDDHDLFVRAQSLGVSLVDFRAVEKIGERHPLPKDFNPPTTDTIYTISFTSGTTGNPKGVLIPHEMAACGIISCTMGLESPFELPKGAKRRQFGENVDQHGVQVTALCHLPLAHIYEREISNYALMSGFRLGFPSSTNPAMFFDDLKSIKPHYLASVPRVYNKLDALLKAKVKRGTPPHVVRKTFGLDHCRYLVSGSAPLGVETIKYLKQTLDIGFSVCYGSTETFAGFFFGDAFEDVITNSCGHPSASVQIRLRDVPEMGYHTNETPMRGELMVKGPQVFSEYFKNPKATADSFDKDGWFHTGDIVSMDSERRVYIIDRVKNFFKLQQGEFVTPERIENIYLAHSPLLTQLFVHGDSLQNFLVGVAGISLEYVQEMFKQDFGVAISQDEVLGLLQDPKYKAMLIKQLNHHVSGADLQGFEKIHNIHVDLEPLRLEDEVLTPTMKIKRENAKKKFAPILEKLYTEGSLVVKQKL	preferred acting upon heptanedioic acid to form 7-oxoheptanoate
SEQ ID NO: 200: Tetrahymena thermophila (strain SB210) carboxylate reductase (protein, Tetrahymena thermophila (strain SB210), Tetrahymena thermophila (strain SB210) carboxylate reductase) MGANQSSRIYNVPIDEKKDGYSQIMRHPKYIDKLEYKPIPEIDNVQDLVLHGYSNSKEMNFFGKKNPVSNEFEYMTYDQVIEQAKQLGSAVKNLQFLKESSEQSNQKMELIGIYSKNRIEWGIADIANSLYGYTMVPLYDSLGPDSISYVLANSEITTCYCSAASVLTLSKTKDLHHLKNIISFDHVSEDLIELVKQRGIVVHLFKDIVEKGSLNVLPLPKLTRDTIFTFCYTSGTTGNPKSAMISHKNILASVTNYDKSDCFLTQDDVHLSYLPLPHIYERFINVYCWFKGTKIAFYSGDVHKIQEDIIASKPTCFSAVPRLLNRFYDAINSKLNQATGFQKILIQHALQTKLENIQKNGVYTHILYDKIIFNKIREQFGGRIRQLVCGSAPTSPKVFDFFKAVLSCSVIEGFGQTELSGVVTIQVKADPKMGNVGGIGPSSELKLEDVPEMEYLSTDKDELGNPKPRGEICVRGYNVFSGYYKDEEKTKEAIDQEGWFHTGDIGEIIPNGGLKIIDRKKNLFKLSQAEYVSPEKVENIYVRARGVQEVYIHGESLYNYCIGIIVPSQEELLKIAAELNISETDIASLCKNQQIISWYIKTIHNLGKHEGLFSFEQPKKIYLEPKSFLVIGCVTNSFKLQRHHAKNYFKNIIQELYNNNNNQ	preferred acting upon heptanedioic acid to form 7-oxoheptanoate
SEQ ID NO: 198: Pestalotiopsis fici W106-1 carboxylate reductase (protein, Pestalotiopsis fici W106-1, Pestalotiopsis fici W106-1 carboxylate reductase) MESYIEKARRYAQPPPPGAPQGVAVPNSKLPGRSAVYRHWRRGDELPDYFDPDLSSGYDMFEQTAKRQPDARCLGYRPYNGSTKSFGPYIWYSYDNVLKRSTDFGKGLAELLEANGVGGRQRPVGLWCANRPEWQFVDLGAMSQSLYSISLYETLGPAATEFLINHAEIPVVCASLEHIPALILAAPRCPSLKLIISLDPLTEEIDAPGTSRKELLSSLAAEKGLQVHDFRDVEKAGQASSRSLNRPRPDDIFTINYTSGTTGNPKGVVLRHSNAVAATVTCLTVYPMRSSDVLCSYLPLAHIYERFVEISAMYGGGSIGYFHGNPLELIDDLKLLRPTIFTSVPRLLNRMGSSIKAATIEQQGVKGALSRYIMETKMANIENDDPAKATNKHMVYDRIWGRKITAALGLDRTVHMMSGSAPLDGGLQQFLRIVFATEIVQGYGSTEMFAICLAQSAGDMSVRNCGGPAACVEVCLLDLPDMGYFSSDQPCPRGELLMRGPNVFSEYYKDDEETSKAFTEDGWFKTGDICAVDELGRFSIIDRRKNLLKLAQGEYISPEHIENVLLAQRPWLAQGYVHGDSAEAHLVGIFGVQPDIFCNFLNRTLGKECKPEDTDQLEAVLQEPEVRSAVVKELAMVGKSAKLNSYEIPRAVRLMIEPFTVENGLLTPTLKLKRPQTAKKFDHLIKEMYAETRKTSTLMAKL	preferred acting upon heptanedioic acid to form 7-oxoheptanoate
SEQ ID NO: 206: Phytophthora sojae (strain P6497) carboxylate reductase (protein, Phytophthora sojae (strain P6497), Phytophthora sojae (strain P6497) carboxylate reductase) MGAGSSSELPMSQIDFDSYTGKRYTVEVPNTRDATHGPAYEVADKEPVNEDEMTLYHNFLRGCSIEHGTRPLYGRRTVDADTGKAGAFEWLTYNEVKTRVERVASGLKAVGALERQDVVGVFSKNQLEWCLVAHACDRMSYVLVPLYDTLGPDAVPFIVNHTELRVLFCGKKQFDVVMDCVKDCPTLKTIVQFEPVTEQQIQQAAAKNLELRSLEELELLGEADPKRADPPKPTDVSTLCYTSGTTGDPKGVILLQRNYAYVVRQMCKRMQIFPSDVHCSYLPLAHVFERSVLGVLQAHGASAGFYQGDLLTLMDDLVELKPTVFVSVPRLFNRVYDKITQGVAAAGGLKKILFDRALAAKLAGLPEGHKTHALWDALVFSKVRLALGGRVRLIFSGSAPLSAEVKEFMKVVFCCDVAEGYGLSETAAAVTVGSVDMPMGPHVGCPLIYGQVQLEDVPEMGYTSRDKPRPRGEILVKGPMIFSGYYKEPEKTREAIDERGWFHTGDIGCWNADGTLSIIDRKKNIFKLAQGEYVAAEKIENIYAKSKYVAQIFAYGDSLQSCLVGIVVPDPETAEAWAQEKGLTGADASAAKVATNPEFQKAVLADMARVAKEAQLRGFEFVKSVHFHPEPFSLEQGLITPTFKLKRPQLKAHFQQQINMLYEGLK	preferred acting upon heptanedioic acid to form 7-oxoheptanoate
